In doi:10.1101/2020.02.28.970301:
Values belong to the molecule of their own block, whether it stands above or below them.

Columns and labels:
[1] = target: MBP-RAMP1.24-111-(GS)5-CLR.29-144-H6 (human) (UniProt O60894); assay: fluorescence polarisation
[2] = target: MBP-RAMP2.55-140[L106R]-(GS)5-CLR.29-144-H6 (human) (UniProt O60895); assay: fluorescence polarisation
[3] = target: RAMP2:CLR full-length receptor complex (AM1 receptor) (human) (UniProt O60895)
[4] = target: MBP-RAMP3.25-111-(GS)5-CLR.29-144-H6 (human) (UniProt O60896); assay: fluorescence polarisation
[5] = target: RAMP1:CLR full-length receptor complex (CGRP receptor) (human) (UniProt O60894)
[6] = target: RAMP3:CLR full-length receptor complex (AM2 receptor) (human) (UniProt O60896)
[7] = target: T1, MBP-RAMP1.24-111-(GS)5-CLR.29-144-H6 (human), O60894; assay: fluorescence polarisation
T1 chain: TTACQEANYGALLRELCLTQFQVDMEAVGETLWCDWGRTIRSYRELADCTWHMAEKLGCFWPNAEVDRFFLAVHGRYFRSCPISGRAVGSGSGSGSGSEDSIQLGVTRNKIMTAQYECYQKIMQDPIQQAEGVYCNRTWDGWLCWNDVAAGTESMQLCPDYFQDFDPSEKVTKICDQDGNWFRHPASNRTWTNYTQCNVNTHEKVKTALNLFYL

Sequence of RAMP2:CLR full-length receptor complex (AM1 receptor) (human) (O60895 43-175, chain 1 of 2): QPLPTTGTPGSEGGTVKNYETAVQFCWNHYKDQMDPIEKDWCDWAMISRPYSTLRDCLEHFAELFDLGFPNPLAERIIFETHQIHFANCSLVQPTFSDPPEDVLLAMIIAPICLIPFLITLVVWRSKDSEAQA
Sequence of RAMP2:CLR full-length receptor complex (AM1 receptor) (human) (Q16602 23-461, chain 2 of 2, further chain): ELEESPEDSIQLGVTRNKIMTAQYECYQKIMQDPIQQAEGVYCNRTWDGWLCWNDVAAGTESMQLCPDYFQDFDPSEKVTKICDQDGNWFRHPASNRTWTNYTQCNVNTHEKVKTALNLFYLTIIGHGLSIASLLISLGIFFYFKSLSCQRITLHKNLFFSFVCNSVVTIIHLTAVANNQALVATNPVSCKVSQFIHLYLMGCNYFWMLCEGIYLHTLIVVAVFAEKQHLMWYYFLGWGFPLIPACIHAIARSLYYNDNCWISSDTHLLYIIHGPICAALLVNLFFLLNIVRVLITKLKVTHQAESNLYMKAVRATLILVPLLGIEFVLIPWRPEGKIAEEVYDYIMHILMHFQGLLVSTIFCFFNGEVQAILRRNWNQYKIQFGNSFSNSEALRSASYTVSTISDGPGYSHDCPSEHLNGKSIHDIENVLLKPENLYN
Sequence of RAMP3:CLR full-length receptor complex (AM2 receptor) (human) (O60896 24-148, chain 1 of 2): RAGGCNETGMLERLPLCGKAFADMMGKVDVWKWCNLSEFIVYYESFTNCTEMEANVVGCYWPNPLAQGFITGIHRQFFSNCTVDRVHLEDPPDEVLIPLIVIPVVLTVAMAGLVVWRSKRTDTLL
Sequence of RAMP3:CLR full-length receptor complex (AM2 receptor) (human) (Q16602 23-461, chain 2 of 2, further chain): as the sequence (Q16602 23-461, chain 2 of 2, further chain) above
Sequence of RAMP1:CLR full-length receptor complex (CGRP receptor) (human) (O60894 27-148, chain 1 of 2): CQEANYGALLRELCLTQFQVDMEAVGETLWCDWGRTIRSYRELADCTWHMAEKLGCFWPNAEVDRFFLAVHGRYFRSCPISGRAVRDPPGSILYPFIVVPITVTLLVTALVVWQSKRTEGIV
Sequence of RAMP1:CLR full-length receptor complex (CGRP receptor) (human) (Q16602 23-461, chain 2 of 2, further chain): as the sequence (Q16602 23-461, chain 2 of 2, further chain) above

Molecule: AM2/IMD S43G/H45W (peptide)
pKI [1]: 4.75

Molecule: AM(22-52) S48G/Q50W (peptide)
antagonism of cAMP signalling in COS-7 cells, apparent KB (Gaddum/Schild) [3]: 80 pM

Molecule: AM(37-52) S45R/K46A/S48G/Q50W (peptide)
fold decrease in affinity against S45R/K46L/S48G/Q50W [2]: 10 fold
fold decrease in affinity against S45R/K46L/S48G/Q50W [4]: 10 fold
fold decrease in affinity against S45R/K46L/S48G/Q50W [1]: 10 fold

Molecule: AM(37-52) S45R/K46L/Q50W (peptide)
fold increase in affinity against K46L/Q50W [2]: 17 fold
fold increase in affinity against K46L/Q50W [4]: 5 fold
fold increase in affinity against K46L/Q50W [1]: 5 fold

Now from value to molecule:

fold increase in affinity against wild-type AM [2]: 5 fold
Molecule: AM S48G (peptide)

fold increase in affinity against Q50W [2]: 13 fold
fold increase in affinity against Q50W [4]: 6 fold
fold increase in affinity against Q50W [1]: 6 fold
Molecule: AM(37-52) S48G/Q50W (peptide)

cAMP antagonism in COS-7 cells; estimated receptor residence time [5]: 12.5 h
cAMP antagonism in COS-7 cells; estimated receptor residence time [6]: 11 h
cAMP antagonism in COS-7 cells; estimated receptor residence time [3]: 5.2 h
Molecule: CGRP(8-37) N31D/S34P/K35W/A36S (peptide)

pKI [7]: 6.08
Molecule: GPAGRQDSAPVDPSSPWSY (modifications not checked) [AM2/IMD H45W]
